Experimental data taken from article PMC13541614 (2026).

B1: CR6261 (broadly neutralizing antibody targeting the stem region of HA), IgG (antibody, V domains shown)
VH: EVQLVESGAEVKKPGSSVKVSCKASGGPFRSYAISWVRQAPGQGPEWMGGIIPIFGTTKYAPKFQGRVTITADDFAGTVYMELSSLRSEDTAMYYCAKHMGYQVRETMDVWGKGTTVTVSS
VL: QSVLTQPPSVSAAPGQKVTISCSGSSSNIGNDYVSWYQQLPGTAPKLLIYDNNKRPSGIPDRFSGSKSGTSATLGITGLQTGDEANYYCATWDRRPTAYVVFGGGTKLTVL
B2: 13D4 (broadly neutralizing antibody targeting the head region of HA), IgG (antibody, V domains shown)
VH: QVQLQQSGAELMKPGASVKISCKATGYTFSGHWIEWVKQRPGHGLEWIGEILPGSGNIHYNEKFKGKATFAADTSSNTAYMQLSSLTSEDSAVYYCARLGTTAVERDWYFDVWGAGTTVTVSL
VL: DIVMTQSQKFMSASVGDRVSVTCKASQNVGTHLAWYQQKPGQSPKALIYSASYRYSGVPDRFTGSGSGTDFTLTISNVQSGDLADYFCQQYNNFPLTFGAGTKLEIK

Target: H5N1 influenza hemagglutinin (HA) of A/Vietnam/1203/2004, native (wild type) (Influenza A virus A/Vietnam/1203/2004 …, biotin on the AviTag (expressed in the presence of BirA))
Experiment: BLI

| Binder | Kd [nM] |
| --- | --- |
| B1 | 0.46 |
| B2 | 0.64 |
